Data published in PMC5414288, “^99mTc-radiolabeled GE11-modified peptide for ovarian tumor targeting” (DARU Journal of Pharmaceutical Sciences, 2017).

Experiments:
[1] = Biodistribution study in normal mice; assay type: in vivo; conditions: normal female NMRI mice, 1 μg i.v., mean ± SD, n = 4
Experimental: Normal female NMRI mice (20–30 g, Mazandaran animal center institute, Sari, Iran) were used in this study and randomly divided into 3 groups of 4. 100 μL of the solution containing 1 μg of the radiolabeled peptide was intravenously injected to the tail vein of each mouse. Mice were euthanized through intraperitoneal injection of ketamine and xylazine at 1, 4 and 24 h after injection. Blood was collected from the heart after deep anesthesia by a syringe which had been washed with heparin. Thereafter, organ samples including; lungs, stomach, liver, kidneys, bone, muscle, salivary glands, heart, spleen and intestines were removed, weighted and the radioactivity of each sample was measured. The tissue uptake of all organs except intestine was calculated as percent of injected dose per gram tissue (% ID/g) and for the intestine was calculated as % ID of the whole sample.

[2] = system: SKOV3 human ovarian cancer xenografts; assay: Biodistribution study in nude mice bearing SKOV3 xenografts; assay type: in vivo; conditions: female nude mice bearing SKOV3 xenograft, 1 μg i.v.; for Blood uptake / Bone uptake / Heart uptake / Intestine uptake / Kidney uptake / Liver uptake / Lung uptake / Muscle uptake / Spleen uptake / Stomach uptake / Tumor uptake / s.g & Th. (salivary gland and thyroid) uptake: mean ± SD
Experimental: The in vivo tumor-targeting of the radiolabeled peptide was studied in female nude mice bearing SKOV3 cancer xenografts. For tumor induction, 10 × 10^6 SKOV3 cells were subcutaneously injected into the right hind leg of nude mice and tumor was allowed to grow for about 4 weeks. In the day of experiment, the average tumor size was 0.63 ± 0.2 g and the mice were randomly divided into three groups of 4 mouse each. The mice were injected intravenously 1 μg of the radiolabelled peptide. At 1 h and 4 h after injection, the mice were sacrificed and the tumor and other tissues were dissected. Blocking experiment was also performed using three nude mice which were subjected to injection of the excess amount (500 μg/50 μl) of the unlabeled peptide 30 min before radioconjugate peptide injection.

[3] = Stability in human serum; assay type: in vitro ADME; conditions: fresh human serum (100 μl to 20 μl reaction mixture), 37 °C, 4 h, acetonitrile/ethanol precipitation, RP-HPLC
Experimental: Serum stability of the peptide was also determined following addition of 100 μl of fresh human serum to 20 μl of the reaction mixture and incubation for 1 and 4 h at 37 °C. Plasma samples were then treated with 500 μl of a mixture of acetonitrile and ethanol (1:1), centrifuged (14,000 rpm, 6 min), filtered (0.22 μm) and degradation of the radiolabeled peptide was assessed in supernatant by RP-HPLC [24].

[4] = 4 h p.i., blocked with excess unlabeled peptide (500 μg) 0.5 h before, n = 3

CC[C@H](C)[C@H](NC(=O)[C@@H](NC(=O)[C@H](CC(N)=O)NC(=O)[C@H](CCC(N)=O)NC(=O)[C@@H]1CCCN1C(=O)[C@@H](NC(=O)[C@H](Cc1ccc(O)cc1)NC(=O)CNC(=O)[C@H](Cc1ccc(O)cc1)NC(=O)[C@H](Cc1c[nH]c2ccccc12)NC(=O)[C@H](Cc1c[nH]cn1)NC(=O)[C@H](Cc1ccc(O)cc1)NC(=O)[C@H](CO)NC(=O)[C@H](CO)NC(=O)[C@H](CO)NC(=O)c1ccc(NN)nc1)[C@@H](C)O)C(C)C)C(=O)O [^99mTc-tricine-HYNIC-SSS-GE11, metal not drawn]
Blood uptake ([1]; 1 h p.i.): 0.84 ± 0.04 % ID/g
Bone uptake ([1]; 1 h p.i.): 0.97 ± 0.14 % ID/g
Heart uptake ([1]; 1 h p.i.): 0.76 ± 0.16 % ID/g
Kidney uptake ([1]; 1 h p.i.): 24.5 ± 1.7 % ID/g
Liver uptake ([1]; 1 h p.i.): 2.88 ± 0.84 % ID/g
Lung uptake ([1]; 1 h p.i.): 1.14 ± 0.63 % ID/g
Muscle uptake ([1]; 1 h p.i.): 0.52 ± 0.14 % ID/g
Spleen uptake ([1]; 1 h p.i.): 0.61 ± 0.14 % ID/g
Stomach uptake ([1]; 1 h p.i.): 0.91 ± 0.27 % ID/g
s.g & Th. (salivary gland and thyroid) uptake ([1]; 1 h p.i.): 0.87 ± 0.15 % ID/g
Blood uptake ([1]; 4 h p.i.): less than 1 % ID/g
Bone uptake ([1]; 4 h p.i.): 0.57 ± 0.2 % ID/g
Heart uptake ([1]; 4 h p.i.): 0.44 ± 0.18 % ID/g
Kidney uptake ([1]; 4 h p.i.): 17.5 ± 1.25 % ID/g
Liver uptake ([1]; 4 h p.i.): 2.05 ± 0.39 % ID/g
Lung uptake ([1]; 4 h p.i.): 0.68 ± 0.23 % ID/g
Muscle uptake ([1]; 4 h p.i.): 0.23 ± 0.11 % ID/g
Spleen uptake ([1]; 4 h p.i.): 0.41 ± 0.13 % ID/g
Stomach uptake ([1]; 4 h p.i.): 0.57 ± 0.15 % ID/g
s.g & Th. (salivary gland and thyroid) uptake ([1]; 4 h p.i.): 0.46 ± 0.22 % ID/g
Blood uptake ([1]; 4 h p.i., listed as 99mTc-Tricine-HYNIC-SSS-GE11): 0.39 ± 0.11 % ID/g
Blood uptake ([1]; 24 h p.i.): 0.18 ± 0.05 % ID/g
Bone uptake ([1]; 24 h p.i.): 0.28 ± 0.05 % ID/g
Heart uptake ([1]; 24 h p.i.): 0.40 ± 0.2 % ID/g
Kidney uptake ([1]; 24 h p.i.): 3.55 ± 0.38 % ID/g
Liver uptake ([1]; 24 h p.i.): 0.33 ± 0.069 % ID/g
Lung uptake ([1]; 24 h p.i.): 0.47 ± 0.09 % ID/g
Muscle uptake ([1]; 24 h p.i.): 0.19 ± 0.05 % ID/g
Spleen uptake ([1]; 24 h p.i.): 0.20 ± 0.06 % ID/g
Stomach uptake ([1]; 24 h p.i.): 0.32 ± 0.19 % ID/g
s.g & Th. (salivary gland and thyroid) uptake ([1]; 24 h p.i.): 0.36 ± 0.12 % ID/g
Blood uptake ([2]; 1 h p.i., n = 4): 2.53 ± 0.51 % ID/g
Bone uptake ([2]; 1 h p.i., n = 4): 1.91 ± 0.53 % ID/g
Heart uptake ([2]; 1 h p.i., n = 4): 2.40 ± 0.96 % ID/g
Intestine uptake ([2]; 1 h p.i., n = 4): 8.38 ± 4.11 % ID/g
Kidney uptake ([2]; 1 h p.i., n = 4): 64.95 ± 7.81 % ID/g
Liver uptake ([2]; 1 h p.i., n = 4): 6.93 ± 0.95 % ID/g
Lung uptake ([2]; 1 h p.i., n = 4): 3.39 ± 0.64 % ID/g
Muscle uptake ([2]; 1 h p.i., n = 4): 0.99 ± 0.21 % ID/g
Spleen uptake ([2]; 1 h p.i., n = 4): 2.86 ± 0.17 % ID/g
Stomach uptake ([2]; 1 h p.i., n = 4): 2.65 ± 0.66 % ID/g
Tumor uptake ([2]; 1 h p.i., n = 4): 2.33 ± 0.67 % ID/g
s.g & Th. (salivary gland and thyroid) uptake ([2]; 1 h p.i., n = 4): 2.52 ± 0.82 % ID/g
Tumor/Blood Ratio ([2]; 1 h p.i., n = 4): 0.92
Tumor/Bone Ratio ([2]; 1 h p.i., n = 4): 1.2
Tumor/Muscle Ratio ([2]; 1 h p.i., n = 4): 2.3
Blood uptake [2, 4]: 0.99 ± 0.18 % ID/g
Bone uptake [2, 4]: 1.01 ± 0.11 % ID/g
Heart uptake [2, 4]: 0.65 ± 0.1 % ID/g
Intestine uptake [2, 4]: 3.83 ± 2.1 % ID/g
Kidney uptake [2, 4]: 42.10 ± 4.39 % ID/g
Liver uptake [2, 4]: 3.28 ± 0.93 % ID/g
Lung uptake [2, 4]: 1.24 ± 0.12 % ID/g
Muscle uptake [2, 4]: 0.51 ± 0.07 % ID/g
Spleen uptake [2, 4]: 0.83 ± 0.1 % ID/g
Stomach uptake [2, 4]: 1.16 ± 0.11 % ID/g
Tumor uptake [2, 4]: 0.93 ± 0.10 % ID/g
s.g & Th. (salivary gland and thyroid) uptake [2, 4]: 0.89 ± 0.16 % ID/g
Tumor/Blood Ratio [2, 4]: 0.96
Tumor/Bone Ratio [2, 4]: 0.92
Tumor/Muscle Ratio [2, 4]: 1.86
Blood uptake ([2]; 4 h p.i., n = 4): 1.43 ± 0.18 % ID/g
Bone uptake ([2]; 4 h p.i., n = 4): 1.29 ± 0.29 % ID/g
Heart uptake ([2]; 4 h p.i., n = 4): 1.56 ± 0.37 % ID/g
Intestine uptake ([2]; 4 h p.i., n = 4): 3.24 ± 0.9 % ID/g
Kidney uptake ([2]; 4 h p.i., n = 4): 57.90 ± 0.49 % ID/g
Liver uptake ([2]; 4 h p.i., n = 4): 4.64 ± 0.69 % ID/g
Lung uptake ([2]; 4 h p.i., n = 4): 1.79 ± 0.34 % ID/g
Muscle uptake ([2]; 4 h p.i., n = 4): 0.51 ± 0.14 % ID/g
Spleen uptake ([2]; 4 h p.i., n = 4): 1.49 ± 0.32 % ID/g
Stomach uptake ([2]; 4 h p.i., n = 4): 1.53 ± 0.16 % ID/g
Tumor uptake ([2]; 4 h p.i., n = 4): 1.66 ± 0.41 % ID/g
s.g & Th. (salivary gland and thyroid) uptake ([2]; 4 h p.i., n = 4): 1.80 ± 0.21 % ID/g
Tumor/Blood Ratio ([2]; 4 h p.i., n = 4): 1.17
Tumor/Bone Ratio ([2]; 4 h p.i., n = 4): 1.3
Tumor/Muscle Ratio ([2]; 4 h p.i., n = 4): 3.42
Stability in human serum [3]: 96%
